Measured values: publication PMC10397247
Values belong to the binder of their own block, whether it stands above or below them.

How the values were obtained:
[1] = biological target: T1, Core_NIII-es_KEEE; assay: two-hybrid library CCmax; details: mean of both orientations;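 note: natural log of median RNA to DNA barcode read ratio; higher means stronger binding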
T1 chain: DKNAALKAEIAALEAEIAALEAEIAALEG

[2] = biological target: T2, O1-bA; assay: two-hybrid library CCNG1;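 note: natural log of median RNA to DNA barcode read ratio; higher means stronger binding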
T2 chain: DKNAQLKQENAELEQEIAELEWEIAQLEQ

[3] = biological target: T3, O10-bA; assay: two-hybrid library CCNG1;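 note: natural log of median RNA to DNA barcode read ratio; higher means stronger binding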
T3 chain: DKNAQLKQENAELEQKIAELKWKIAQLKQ

[4] = biological target: T4, O11-bA; assay: two-hybrid library CCNG1;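 note: natural log of median RNA to DNA barcode read ratio; higher means stronger binding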
T4 chain: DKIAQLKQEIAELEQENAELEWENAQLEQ

[5] = biological target: T5, O12-bA; assay: two-hybrid library CCNG1;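 note: natural log of median RNA to DNA barcode read ratio; higher means stronger binding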
T5 chain: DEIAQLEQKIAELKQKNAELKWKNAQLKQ

[6] = biological target: T6, O13-bA; assay: two-hybrid library CCNG1;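 note: natural log of median RNA to DNA barcode read ratio; higher means stronger binding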
T6 chain: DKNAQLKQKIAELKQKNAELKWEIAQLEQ

[7] = biological target: T7, O14-bA; assay: two-hybrid library CCNG1
T7 chain: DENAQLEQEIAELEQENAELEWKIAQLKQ

[8] = biological target: T8, O15-bA; assay: two-hybrid library CCNG1
T8 chain: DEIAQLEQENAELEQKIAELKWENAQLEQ

[9] = biological target: T9, O16-bA; assay: two-hybrid library CCNG1
T9 chain: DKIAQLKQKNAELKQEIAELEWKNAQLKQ

[10] = biological target: T10, O2-bA; assay: two-hybrid library CCNG1
T10 chain: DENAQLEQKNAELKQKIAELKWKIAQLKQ

[11] = biological target: T11, O3-bA; assay: two-hybrid library CCNG1
T11 chain: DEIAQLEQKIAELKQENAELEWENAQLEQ

[12] = biological target: T12, O4-bA; assay: two-hybrid library CCNG1
T12 chain: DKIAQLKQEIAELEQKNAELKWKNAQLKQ

[13] = biological target: T13, O5-bA; assay: two-hybrid library CCNG1
T13 chain: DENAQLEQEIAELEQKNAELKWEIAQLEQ

[14] = biological target: T14, O6-bA; assay: two-hybrid library CCNG1
T14 chain: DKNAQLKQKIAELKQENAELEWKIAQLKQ

[15] = biological target: T15, O7-bA; assay: two-hybrid library CCNG1
T15 chain: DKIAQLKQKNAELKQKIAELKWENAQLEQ

[16] = biological target: T16, O8-bA; assay: two-hybrid library CCNG1
T16 chain: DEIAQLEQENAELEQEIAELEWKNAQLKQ

[17] = biological target: T17, O9-bA; assay: two-hybrid library CCNG1
T17 chain: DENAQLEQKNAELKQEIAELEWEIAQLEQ

[18] = biological target: T18, 4H1257-bN; assay: two-hybrid library CCNG1
T18 chain: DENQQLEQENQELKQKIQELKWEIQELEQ

[19] = biological target: T19, 4H1446-bN; assay: two-hybrid library CCNG1
T19 chain: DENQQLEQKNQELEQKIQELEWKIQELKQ

[20] = biological target: T20, 4H1828-bN; assay: two-hybrid library CCNG1
T20 chain: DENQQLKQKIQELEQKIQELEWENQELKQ

[21] = biological target: T21, 4H1845-bN; assay: two-hybrid library CCNG1
T21 chain: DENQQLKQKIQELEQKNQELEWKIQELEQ

[22] = biological target: T22, 4H2442-bN; assay: two-hybrid library CCNG1
T22 chain: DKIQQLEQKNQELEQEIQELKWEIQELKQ

[23] = biological target: T23, 4H2576-bN; assay: two-hybrid library CCNG1
T23 chain: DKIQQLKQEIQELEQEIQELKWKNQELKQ

[24] = biological target: T24, 4H2618-bN; assay: two-hybrid library CCNG1
T24 chain: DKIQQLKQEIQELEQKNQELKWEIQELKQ

[25] = biological target: T25, 4H2667-bN; assay: two-hybrid library CCNG1
T25 chain: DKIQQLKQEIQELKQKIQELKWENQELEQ

[26] = biological target: T26, 4H2729-bN; assay: two-hybrid library CCNG1
T26 chain: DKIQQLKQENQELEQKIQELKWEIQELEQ

[27] = biological target: T27, 4H3112-bN; assay: two-hybrid library CCNG1
T27 chain: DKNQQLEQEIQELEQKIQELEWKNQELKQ

[28] = biological target: T28, 4H3185-bN; assay: two-hybrid library CCNG1
T28 chain: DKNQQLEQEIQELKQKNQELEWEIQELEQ

[29] = biological target: T29, 4H331-bN; assay: two-hybrid library CCNG1
T29 chain: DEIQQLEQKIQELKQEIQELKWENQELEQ

[30] = biological target: T30, 4H3354-bN; assay: two-hybrid library CCNG1
T30 chain: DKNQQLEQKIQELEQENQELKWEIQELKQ

[31] = biological target: T31, 4H338-bN; assay: two-hybrid library CCNG1
T31 chain: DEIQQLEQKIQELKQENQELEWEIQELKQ

[32] = biological target: T32, 4H3427-bN; assay: two-hybrid library CCNG1
T32 chain: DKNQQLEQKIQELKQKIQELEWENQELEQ

[33] = biological target: T33, 4H3782-bN; assay: two-hybrid library CCNG1
T33 chain: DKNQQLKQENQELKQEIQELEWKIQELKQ

[34] = biological target: T34, 4H3855-bN; assay: two-hybrid library CCNG1
T34 chain: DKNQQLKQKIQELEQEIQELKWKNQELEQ

[35] = biological target: T35, 4H4001-bN; assay: two-hybrid library CCNG1
T35 chain: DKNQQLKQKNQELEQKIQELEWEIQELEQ

[36] = biological target: T36, 4H454-bN; assay: two-hybrid library CCNG1
T36 chain: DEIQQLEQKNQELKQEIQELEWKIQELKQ

[37] = biological target: T37, 4H568-bN; assay: two-hybrid library CCNG1
T37 chain: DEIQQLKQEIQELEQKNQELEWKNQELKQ

[38] = biological target: T38, 4H607-bN; assay: two-hybrid library CCNG1
T38 chain: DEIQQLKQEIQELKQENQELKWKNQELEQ

[39] = biological target: T39, 4H687-bN; assay: two-hybrid library CCNG1
T39 chain: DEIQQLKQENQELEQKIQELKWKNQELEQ

[40] = biological target: T40, 4H717-bN; assay: two-hybrid library CCNG1
T40 chain: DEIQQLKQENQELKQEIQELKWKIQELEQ

[41] = biological target: T41, 4H72-bN; assay: two-hybrid library CCNG1
T41 chain: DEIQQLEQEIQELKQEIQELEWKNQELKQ

[42] = biological target: T42, 4H754-bN; assay: two-hybrid library CCNG1
T42 chain: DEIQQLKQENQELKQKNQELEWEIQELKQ

[43] = biological target: T43, 4H797-bN; assay: two-hybrid library CCNG1
T43 chain: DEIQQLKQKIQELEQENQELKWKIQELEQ

[44] = biological target: T44, 4H883-bN; assay: two-hybrid library CCNG1
T44 chain: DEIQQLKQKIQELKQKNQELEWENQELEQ

[45] = biological target: T45, 4H908-bN; assay: two-hybrid library CCNG1
T45 chain: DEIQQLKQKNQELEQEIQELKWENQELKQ

[46] = biological target: T46, 4H918-bN; assay: two-hybrid library CCNG1
T46 chain: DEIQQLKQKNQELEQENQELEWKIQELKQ

[47] = biological target: T47, 4H953-bN; assay: two-hybrid library CCNG1
T47 chain: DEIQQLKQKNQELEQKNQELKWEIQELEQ

[48] = biological target: T48, 4H967-bN; assay: two-hybrid library CCNG1
T48 chain: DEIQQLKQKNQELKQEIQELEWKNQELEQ

[49] = biological target: T49, P3A-bN; assay: two-hybrid library CCNG1
T49 chain: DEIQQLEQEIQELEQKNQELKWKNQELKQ

[50] = biological target: T50, 4H1046-bN; assay: two-hybrid library CCNG1; details: mean of both orientations
T50 chain: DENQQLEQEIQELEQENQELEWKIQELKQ

[51] = biological target: T51, 4H1072-bN; assay: two-hybrid library CCNG1
T51 chain: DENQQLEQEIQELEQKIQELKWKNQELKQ

[52] = biological target: T52, 4H2568-bN; assay: two-hybrid library CCNG1
T52 chain: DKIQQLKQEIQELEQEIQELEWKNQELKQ

[53] = biological target: T53, 4H2619-bN; assay: two-hybrid library CCNG1
T53 chain: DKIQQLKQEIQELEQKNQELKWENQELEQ

[54] = biological target: T54, 4H2745-bN; assay: two-hybrid library CCNG1
T54 chain: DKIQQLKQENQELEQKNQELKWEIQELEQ

[55] = biological target: T55, 4H344-bN; assay: two-hybrid library CCNG1
T55 chain: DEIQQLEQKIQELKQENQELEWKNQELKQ

[56] = biological target: T56, 4H363-bN; assay: two-hybrid library CCNG1
T56 chain: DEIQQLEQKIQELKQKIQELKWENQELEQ

[57] = biological target: T57, 4H3907-bN; assay: two-hybrid library CCNG1
T57 chain: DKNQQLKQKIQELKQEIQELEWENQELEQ

[58] = biological target: T58, 4H3961-bN; assay: two-hybrid library CCNG1; details: mean of both orientations
T58 chain: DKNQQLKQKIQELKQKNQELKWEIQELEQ

[59] = biological target: T59, 4H470-bN; assay: two-hybrid library CCNG1
T59 chain: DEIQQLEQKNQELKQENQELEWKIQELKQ

[60] = biological target: T60, Core_NINN-es_KKEK; assay: two-hybrid library CCmax; details: mean of both orientations
T60 chain: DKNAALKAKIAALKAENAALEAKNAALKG

Binder: DENAALEAKIAALKAKIAALKAKIAALKG [Core_NIII-es_EKKK]
interaction score [1]: 2.17

Binder: DKNAQLKQENAELEQEIAELEWEIAQLEQ [O1-bA]
interaction score [2]: -0.889
interaction score [3]: 1.21
interaction score [4]: -1.05
interaction score [5]: -0.825
interaction score [6]: 0.415
interaction score [7]: -1.02
interaction score [8]: -1.03
interaction score [9]: -0.581
interaction score [10]: 2.31
interaction score [11]: -1.08
interaction score [12]: -1.53
interaction score [13]: -1.23
interaction score [14]: -0.599
interaction score [15]: -0.0848
interaction score [16]: -1.59
interaction score [17]: -0.823

Binder: DENAALEAEIAALEAKNAALKAENAALEG [Core_NINN-es_EEKE]
interaction score [60]: 1.78

Other lines, results leading:

interaction score [18]: -1.67
interaction score [19]: -0.533
interaction score [20]: -0.561
interaction score [21]: -0.503
interaction score [22]: -1.13
interaction score [23]: -0.613
interaction score [24]: -0.173
interaction score [25]: -1.35
interaction score [26]: -0.506
interaction score [27]: -0.702
interaction score [28]: -1.45
interaction score [29]: -1.48
interaction score [30]: -1.08
interaction score [31]: -0.857
interaction score [32]: -0.768
interaction score [33]: 1.9
interaction score [34]: -0.77
interaction score [35]: -1.89
interaction score [36]: 0.889
interaction score [37]: -1.28
interaction score [38]: -0.95
interaction score [39]: -1.24
interaction score [40]: -1.05
interaction score [41]: -1.99
interaction score [42]: -1.46
interaction score [43]: -0.946
interaction score [44]: -1.31
interaction score [45]: -1.39
interaction score [46]: -1.21
interaction score [47]: -0.733
interaction score [48]: -0.47
interaction score [49]: -1.36
Binder: DENQQLEQENQELKQKIQELKWEIQELEQ [4H1257-bN]

interaction score [50]: -0.38
interaction score [51]: -0.367
interaction score [52]: 0.836
interaction score [53]: -1.35
interaction score [54]: -0.112
interaction score [55]: 0.965
interaction score [56]: -0.252
interaction score [57]: -0.5
interaction score [58]: 1.37
interaction score [59]: 0.0233
Binder: DENQQLEQEIQELEQENQELEWKIQELKQ [4H1046-bN]
